Results taken from IntAct's records for PubMed 15294869.

Target: pir_arath PIR (UniProt Q5S2C3)
Sequence (Q5S2C3 whole entry): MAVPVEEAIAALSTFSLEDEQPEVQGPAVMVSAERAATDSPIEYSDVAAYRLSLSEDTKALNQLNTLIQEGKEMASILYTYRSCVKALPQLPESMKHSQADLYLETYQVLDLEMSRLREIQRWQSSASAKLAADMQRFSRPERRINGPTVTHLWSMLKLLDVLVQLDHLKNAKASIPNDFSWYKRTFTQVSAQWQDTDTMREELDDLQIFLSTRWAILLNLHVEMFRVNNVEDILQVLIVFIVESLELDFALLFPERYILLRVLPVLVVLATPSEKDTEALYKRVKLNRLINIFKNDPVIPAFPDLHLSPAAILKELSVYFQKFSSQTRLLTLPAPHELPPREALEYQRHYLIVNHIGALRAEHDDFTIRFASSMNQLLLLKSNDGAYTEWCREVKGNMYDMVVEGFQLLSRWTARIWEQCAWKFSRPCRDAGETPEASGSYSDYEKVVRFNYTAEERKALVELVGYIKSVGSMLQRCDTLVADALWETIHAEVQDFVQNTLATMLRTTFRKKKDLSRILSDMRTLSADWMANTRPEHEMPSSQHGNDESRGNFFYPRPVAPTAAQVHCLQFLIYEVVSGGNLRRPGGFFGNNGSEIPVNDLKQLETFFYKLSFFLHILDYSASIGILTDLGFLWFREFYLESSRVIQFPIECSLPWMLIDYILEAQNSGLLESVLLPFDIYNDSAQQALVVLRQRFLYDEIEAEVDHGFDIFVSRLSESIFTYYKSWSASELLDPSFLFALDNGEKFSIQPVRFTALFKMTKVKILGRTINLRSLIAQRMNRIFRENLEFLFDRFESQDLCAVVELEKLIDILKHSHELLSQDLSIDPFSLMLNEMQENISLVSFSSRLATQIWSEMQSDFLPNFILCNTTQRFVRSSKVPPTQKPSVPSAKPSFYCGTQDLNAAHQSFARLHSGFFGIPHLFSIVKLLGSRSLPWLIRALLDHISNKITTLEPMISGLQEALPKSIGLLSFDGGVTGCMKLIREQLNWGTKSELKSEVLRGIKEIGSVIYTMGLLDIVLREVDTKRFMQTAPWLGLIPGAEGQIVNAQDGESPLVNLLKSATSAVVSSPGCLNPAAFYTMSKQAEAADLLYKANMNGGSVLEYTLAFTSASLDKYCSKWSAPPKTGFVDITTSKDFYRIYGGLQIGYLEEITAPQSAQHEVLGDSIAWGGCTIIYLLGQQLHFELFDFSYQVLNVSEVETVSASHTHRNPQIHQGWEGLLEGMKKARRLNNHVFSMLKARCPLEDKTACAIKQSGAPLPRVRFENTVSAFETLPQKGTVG

Rac-like GTP-binding protein ARAC4 (Arabidopsis thaliana (Mouse-ear cress)), Q38919 T19N, sequence (Q38919 whole entry T19N): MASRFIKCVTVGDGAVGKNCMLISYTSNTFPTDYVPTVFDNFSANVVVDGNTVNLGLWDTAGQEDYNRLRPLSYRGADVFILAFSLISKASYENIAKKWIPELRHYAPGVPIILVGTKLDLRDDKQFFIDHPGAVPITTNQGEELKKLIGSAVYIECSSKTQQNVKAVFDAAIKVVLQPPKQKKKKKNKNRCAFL
Rac-like GTP-binding protein ARAC4 (Arabidopsis thaliana (Mouse-ear cress)), Q38919 D120A, sequence (Q38919 whole entry D120A): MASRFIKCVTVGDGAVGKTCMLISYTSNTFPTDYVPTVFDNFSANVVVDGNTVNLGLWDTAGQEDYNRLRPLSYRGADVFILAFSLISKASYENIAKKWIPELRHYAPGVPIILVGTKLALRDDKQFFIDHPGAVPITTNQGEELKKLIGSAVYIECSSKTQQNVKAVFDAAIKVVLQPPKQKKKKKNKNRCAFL

| effect of a mutation on the interaction | Substance |
| --- | --- |
| disrupting interaction | Rac-like GTP-binding protein ARAC4 (Arabidopsis thaliana (Mouse-ear cress)), Q38919 D120A |
| disrupting interaction | Rac-like GTP-binding protein ARAC4 (Arabidopsis thaliana (Mouse-ear cress)), Q38919 T19N |
